In assay [1] the target is T1, Recombinant His-tagged human IL-6Rα (human, UniProt P08887 20-365, limits assumed).
T1 construct: Bought from GenScript; also called sIL-6Rα; not shown: His tag
T1 sequence (looked up): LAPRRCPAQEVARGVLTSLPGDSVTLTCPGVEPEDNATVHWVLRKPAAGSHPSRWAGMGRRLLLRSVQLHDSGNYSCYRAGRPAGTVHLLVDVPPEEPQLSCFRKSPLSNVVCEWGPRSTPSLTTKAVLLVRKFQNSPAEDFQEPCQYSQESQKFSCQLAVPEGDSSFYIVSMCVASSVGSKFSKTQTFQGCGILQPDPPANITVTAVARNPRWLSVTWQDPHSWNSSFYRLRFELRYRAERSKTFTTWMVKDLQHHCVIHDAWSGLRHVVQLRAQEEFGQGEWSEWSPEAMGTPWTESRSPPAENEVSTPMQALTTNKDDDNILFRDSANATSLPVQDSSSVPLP
As to the kind of experiment: competition ELISA: inhibition of IL-6/IL-6Rα complex binding to coated gp130-Fc (trans-binding).

Assay [2] deals with T1, Recombinant His-tagged human IL-6Rα. Briefly: competition ELISA: inhibition of IL-6 binding to coated IL-6Rα (cis-binding).

B1: Tocilizumab (antibody, V domains shown)
VH: QVQLQESGPGLVRPSQTLSLTCTVSGYSITSDHAWSWVRQPPGRGLEWIGYISYSGITTYNPSLKSRVTMLRDTSKNQFSLRLSSVTAADTAVYYCARSLARTTAMDYWGQGSLVTVSS
VL: DIQMTQSPSSLSASVGDRVTITCRASQDISSYLNWYQQKPGKAPKLLIYYTSRLHSGVPSRFSGSGSGTDFTFTISSLQPEDIATYYCQQGNTLPYTFGQGTKVEIKR
On to B1, for which the values for the IC50 in assay [1] and in assay [2] were 0.1 µg/mL and 0.935 µg/mL, respectively.

Source of the values: patent US20220105163A1 (UNITED BIOMEDICAL, published 2022).
